Source: PMC7384961 (Cell, 2020)

Molecular target: T1, FLAG-BirA(R118G)-TBL1XR1 Y446S (human, UniProt Q9BZK7 1-514, Y446S)
T1 sequence (looked up): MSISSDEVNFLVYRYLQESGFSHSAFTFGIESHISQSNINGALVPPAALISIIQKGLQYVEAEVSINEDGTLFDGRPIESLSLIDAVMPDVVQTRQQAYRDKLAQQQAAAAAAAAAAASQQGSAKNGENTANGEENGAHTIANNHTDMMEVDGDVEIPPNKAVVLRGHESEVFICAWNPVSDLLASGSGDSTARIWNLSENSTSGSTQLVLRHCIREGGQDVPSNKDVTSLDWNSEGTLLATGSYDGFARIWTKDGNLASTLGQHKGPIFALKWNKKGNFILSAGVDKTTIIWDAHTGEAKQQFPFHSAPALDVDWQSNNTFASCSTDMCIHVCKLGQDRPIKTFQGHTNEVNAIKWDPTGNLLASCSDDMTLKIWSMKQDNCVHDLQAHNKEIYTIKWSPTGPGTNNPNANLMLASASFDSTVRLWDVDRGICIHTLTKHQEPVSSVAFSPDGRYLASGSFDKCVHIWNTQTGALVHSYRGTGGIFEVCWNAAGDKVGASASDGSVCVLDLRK
Test: proximity labelling

fold gain of interaction against TBL1XR1 WT: ~6 fold
B1: BACH2 (endogenous) (natural protein)
chain: not shown
